{"source": "paper PMC11445502", "about": "“CDK phosphorylation of Sfr1 downregulates Rad51 function in late-meiotic homolog invasions” (The EMBO Journal, 2024)", "molecules": {"B1": {"name": "Rad51 (untagged) (natural protein, S. pombe, UniProt P36601 1-365, looked up)", "chain": "MADTEVEMQVSAADTNNNENGQAQSNYEYDVNVQDEEDEAAAGPMPLQMLEGNGITASDIKKIHEAGYYTVESIAYTPKRQLLLIKGISEAKADKLLGEASKLVPMGFTTATEYHIRRSELITITTGSKQLDTLLQGGVETGSITELFGEFRTGKSQICHTLAVTCQLPIDMGGGEGKCLYIDTEGTFRPVRLLAVADRYGLNGEEVLDNVAYARAYNADHQLELLQQAANMMSESRFSLLVVDSCTALYRTDFSGRGELSARQMHLARFMRTLQRLADEFGIAVVITNQVVAQVDGISFNPDPKKPIGGNILAHSSTTRLSLRKGRGEQRICKIYDSPCLPESEAIFAINSDGVGDPKEIIAPV", "notes": "Rad51 recombinase, S. pombe, untagged, in pET-11d; Plasmid ordered from GeneUniversal or GeneCust; also called pET-11d rad51 (CMC99); recombinase Rad51; source: E. coli BL21 DE3, in cleared lysate"}}, "key": {"Rad51 [1]": {"molecular_target": "Rad51 (UniProt P36601)", "experiment": "focus co-localisation on nuclear spreads", "settings": "reference: EGFP-Sfr1 wild type; sites T73,T89,S109,S116,S147,T152,S165"}, "Rad51 [2]": {"molecular_target": "Rad51 (UniProt P36601)", "experiment": "GST pulldown from mixed bacterial lysates", "settings": "reference: wild-type GST-Sfr1; sites T73,T89,S109,S116,S147,T152,S165"}, "GST-Sfr1-7A": {"molecular_target": "T1, GST-Sfr1-7A (S. pombe, UniProt Q9USV1 1-299, Thr73 to Ala | Thr89 to Ala | Ser109 to Ala | Ser116 to Ala | Ser147 to Ala | …)", "T1 construct": "Sfr1, S. pombe, all seven putative CDK sites changed to alanine; pGEX-4T-1 should put GST at the N-terminus (surmised); Partly degraded as m1; also called pGEX-4T-1 sfr1-7A (CMC102); source: E. coli BL21 DE3, in cleared lysate", "T1 sequence (looked up)": "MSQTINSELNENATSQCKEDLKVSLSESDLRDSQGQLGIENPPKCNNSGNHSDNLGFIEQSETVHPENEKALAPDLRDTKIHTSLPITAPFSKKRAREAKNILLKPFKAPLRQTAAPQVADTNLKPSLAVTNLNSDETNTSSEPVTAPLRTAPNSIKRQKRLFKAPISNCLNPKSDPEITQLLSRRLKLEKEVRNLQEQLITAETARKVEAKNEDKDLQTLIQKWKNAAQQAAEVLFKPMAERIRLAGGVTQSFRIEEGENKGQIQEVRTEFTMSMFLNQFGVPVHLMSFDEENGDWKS", "experiment": "pull-down; GST-Sfr1 lysates (~2 mg) and Rad51 extract (75 ug) from E. coli mixed, Glutathione Sepharose 4B, 1 h at 4 °C; pulldown buffer 25 mM HEPES-KOH pH 7.5, 150 mM NaCl, 3.5 mM MgCl2, 0.5 mM DTT, 0.05 mg/ml BSA, 10% glycerol, 0.05% Igepal; western blot anti-GST and anti-Rad51; Rad51/GST ratio quantified", "settings": "partners not purified"}, "GST-Sfr1-WI": {"molecular_target": "T2, GST-Sfr1-WI (S. pombe, UniProt Q9USV1 1-299, Lys93 to Ala | Lys94 to Ala | Arg95 to Ala | Lys157 to Ala | Arg158 to Ala | …)", "T2 construct": "Sfr1, S. pombe, seven arginine and lysine residues of Site 1 and Site 2 changed to alanine; pGEX-4T-1 should put GST at the N-terminus (surmised); Partly degraded as m1; also called pGEX-4T-1 sfr1-WI (CMC98); source: E. coli BL21 DE3, in cleared lysate", "T2 sequence (looked up)": "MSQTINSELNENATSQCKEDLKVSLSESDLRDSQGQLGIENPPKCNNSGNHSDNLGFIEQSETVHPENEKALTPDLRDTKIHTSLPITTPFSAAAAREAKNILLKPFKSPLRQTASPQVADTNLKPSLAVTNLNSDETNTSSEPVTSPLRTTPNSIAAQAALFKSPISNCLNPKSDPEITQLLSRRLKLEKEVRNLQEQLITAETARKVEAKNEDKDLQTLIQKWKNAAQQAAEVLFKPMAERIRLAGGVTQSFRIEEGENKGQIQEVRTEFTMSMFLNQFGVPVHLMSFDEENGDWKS", "experiment": "pull-down; GST-Sfr1 lysates (~2 mg) and Rad51 extract (75 ug) from E. coli mixed, Glutathione Sepharose 4B, 1 h at 4 °C; pulldown buffer 25 mM HEPES-KOH pH 7.5, 150 mM NaCl, 3.5 mM MgCl2, 0.5 mM DTT, 0.05 mg/ml BSA, 10% glycerol, 0.05% Igepal; western blot anti-GST and anti-Rad51; Rad51/GST ratio quantified", "settings": "partners not purified"}}}
{"molecule": "Sfr1 (from UniProt Q9USV1) EGFP-Sfr1-7A", "values": [{"measurement": "other: % of Rad51 foci co-localised with EGFP-Sfr1 foci", "setting": "Rad51 [1]", "value": "same; reference 78"}]}
{"molecule": "Sfr1 (from UniProt Q9USV1) EGFP-Sfr1-7D", "values": [{"measurement": "other: % of Rad51 foci co-localised with EGFP-Sfr1 foci", "setting": "Rad51 [1]", "value": "weaker; reference 78"}]}
{"molecule": "Sfr1 (from UniProt Q9USV1) GST-Sfr1-7A", "values": [{"measurement": "percent of reference", "setting": "Rad51 [2]", "value": 81, "unit": "%"}]}
{"molecule": "B1", "values": [{"measurement": "efficiency of binding compared to control GST-Sfr1 (Rad51/GST ratio)", "setting": "GST-Sfr1-7A", "value": 81, "unit": "%"}, {"measurement": "efficiency of binding compared to control GST-Sfr1 (Rad51/GST ratio)", "setting": "GST-Sfr1-WI", "value": 17, "unit": "%"}]}
